pKd: −log10 of the molar value.

Data on 41 substances can be found in patent publication US20240294646A1.

Assay [1] concerns the target FcγRIIaR, soluble extracellular domain (UniProt P12318). The assay can be described thus: SPR (Biacore 4000, Protocol 2): antibody captured on immobilised HER2, soluble receptor as analyte. On the technique in general: In SPR one partner is held on a chip, and binding of the other changes the refractive index at the surface.
The target in assay [2] is FcγRIIb, soluble extracellular domain (UniProt P31994). Described as above.
Sequence of FcγRIIb, soluble extracellular domain (P31994 43-217): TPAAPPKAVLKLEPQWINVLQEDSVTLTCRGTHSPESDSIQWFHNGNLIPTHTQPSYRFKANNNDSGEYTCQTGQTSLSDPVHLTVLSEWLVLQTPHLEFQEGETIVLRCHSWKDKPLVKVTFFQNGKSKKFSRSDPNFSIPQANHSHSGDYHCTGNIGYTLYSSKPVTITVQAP
Assay [3] has as its target Soluble FcγRIIaR extracellular domain with C-terminal 10×His tag (UniProt P12318). The experiment in a line: SPR (Biacore 4000), antibody captured on immobilised HER2, soluble receptor as analyte.
The target in assay [4] is Soluble FcγRIIb extracellular domain with C-terminal 10×His tag (UniProt P31994). The description is as above.
Sequence of Soluble FcγRIIb extracellular domain with C-terminal 10×His tag (P31994 other isoform, or with tags, fused parts or gaps): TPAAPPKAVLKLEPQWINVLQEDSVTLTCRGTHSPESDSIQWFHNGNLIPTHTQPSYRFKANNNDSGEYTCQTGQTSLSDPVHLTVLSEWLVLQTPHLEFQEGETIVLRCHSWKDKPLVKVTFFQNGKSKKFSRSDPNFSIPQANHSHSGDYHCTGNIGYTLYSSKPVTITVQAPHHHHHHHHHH
A further assay concerns the target C1q (human) (UniProt P02745). The experiment in a line: ELISA; antibody coated, human C1q added, signal as % of WT. On the technique in general: An ELISA detects its analyte on a solid surface through an enzyme-linked reagent.
In assay [5] the target is FcγRIIb (UniProt P31994). The assay can be described thus: SPR (Protocol 2), antibody captured on immobilised HER2, receptor as analyte.
Sequence of FcγRIIb (P31994 43-217): as the sequence (P31994 43-217) above
A further assay deals with FcγRIIaR (UniProt P12318). Described as above.
Sequence of FcγRIIaR (P12318 34-217): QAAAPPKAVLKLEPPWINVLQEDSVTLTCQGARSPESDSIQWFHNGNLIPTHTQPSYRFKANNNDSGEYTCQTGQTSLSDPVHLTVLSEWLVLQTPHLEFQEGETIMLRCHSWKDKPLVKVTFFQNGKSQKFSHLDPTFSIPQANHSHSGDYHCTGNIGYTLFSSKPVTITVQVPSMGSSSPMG
The target in assay [6] is FcγRIIb (UniProt P31994). The experiment in a line: SPR (Protocol 2); ratio of the fold for FcγRIIb to the fold for FcγRIIaR.

Sequence of Soluble FcγRIIaR extracellular domain with C-terminal 10×His tag (P12318 other isoform, or with tags, fused parts or gaps): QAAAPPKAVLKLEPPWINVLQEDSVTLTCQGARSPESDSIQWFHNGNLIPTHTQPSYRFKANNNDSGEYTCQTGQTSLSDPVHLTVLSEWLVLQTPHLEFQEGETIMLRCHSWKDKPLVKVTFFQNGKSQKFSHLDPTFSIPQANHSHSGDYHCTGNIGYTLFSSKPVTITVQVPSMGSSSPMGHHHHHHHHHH
Sequence of C1q (human) (P02745 23-245 limits assumed, chain 1 of 3): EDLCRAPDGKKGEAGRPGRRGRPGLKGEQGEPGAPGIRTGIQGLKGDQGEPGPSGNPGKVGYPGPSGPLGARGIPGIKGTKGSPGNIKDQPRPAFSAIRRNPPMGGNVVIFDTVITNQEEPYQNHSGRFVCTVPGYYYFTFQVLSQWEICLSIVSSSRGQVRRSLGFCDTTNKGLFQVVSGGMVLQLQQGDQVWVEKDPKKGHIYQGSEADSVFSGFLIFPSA
Sequence of C1q (human) (P02746 28-253 limits assumed, chain 2 of 3, further chain): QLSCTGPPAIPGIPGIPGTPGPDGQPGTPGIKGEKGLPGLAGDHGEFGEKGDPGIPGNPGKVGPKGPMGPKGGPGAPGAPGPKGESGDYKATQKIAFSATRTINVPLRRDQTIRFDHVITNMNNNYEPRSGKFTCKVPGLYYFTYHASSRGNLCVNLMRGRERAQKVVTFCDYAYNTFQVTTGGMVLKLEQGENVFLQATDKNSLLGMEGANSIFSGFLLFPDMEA
Sequence of C1q (human) (P02747 29-245 limits assumed, chain 3 of 3, further chain): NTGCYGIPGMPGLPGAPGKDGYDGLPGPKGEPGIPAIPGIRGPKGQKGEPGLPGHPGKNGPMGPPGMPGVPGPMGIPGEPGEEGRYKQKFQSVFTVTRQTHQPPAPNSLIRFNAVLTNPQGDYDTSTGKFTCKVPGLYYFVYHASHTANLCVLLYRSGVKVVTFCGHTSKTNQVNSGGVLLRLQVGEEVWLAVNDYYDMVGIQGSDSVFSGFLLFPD
Sequence of FcγRIIaR, soluble extracellular domain (P12318 34-217): as the sequence (P12318 34-217) above

For the substance “Variant 26726 (A_D270H_strat2), one-armed trastuzumab antibody with heterodimeric IgG1 Fc”, the figures for the pKd in assay [1] and in assay [2] were 7.13 and 7.64, respectively.
Take “Variant 26720 (A_D270S_strat2), one-armed trastuzumab antibody”: the values for the pKd in assay [3] and in assay [4] were 7.10 and 7.54, respectively.
With “Variant 26722 (A_D270N_strat2), one-armed trastuzumab antibody with heterodimeric IgG1 Fc”, the pKd was 7.11 in assay [1] and 7.68 in assay [2].
Consider “Variant 26704 (A_E269Q_strat2), one-armed trastuzumab antibody”, for which the pKd in assay [3] was 7.18; in assay [4], 7.66.
On to “Variant 26734 (A_P271W_strat2), one-armed trastuzumab antibody with heterodimeric IgG1 Fc”, for which the pKd was 7.14 in assay [1] and 7.55 in assay [2].
For the substance “Variant 26714 (A_D270L_strat2), one-armed trastuzumab antibody”, the pKd was 7.10 in assay [3] and 7.48 in assay [4].
“Variant 32257 (trastuzumab FSA; chain A A237E_strat1, chain B G330*K_strat1) (antibody)” came in with a C1q Binding (% WT) in the assay with C1q (human) of 145 % WT.
Still for that read-out and setting: in the case of “Variant 32256 (trastuzumab FSA; chain A A237D_strat1, chain B G330*K_strat1) (antibody)” it was 124 % WT.
For “Variant 26706 (A_E269D_strat2), one-armed trastuzumab antibody”, the pKd was 7.21 in assay [3] and 7.70 in assay [4].
Consider “Variant 32277 (trastuzumab FSA; chain A S239G_strat2, chain B G237L_strat2) (antibody)”, for which the C1q Binding (% WT) with C1q (human) was 0 % WT.
With “Variant 26703 (A_E269S_strat2), one-armed trastuzumab antibody”, the pKd in assay [3] was 7.22; in assay [4], 7.62.
As to “Variant 26737 (A_P271S_strat2), one-armed trastuzumab antibody with heterodimeric IgG1 Fc”, the values for the negative-log Kd (pKd) in assay [1] and in assay [2] were 7.05 and 7.44, respectively.
“Variant 32268 (trastuzumab FSA; chain A S239T_strat1, chain B G330*K_strat1) (antibody)” gave a C1q Binding (% WT) with C1q (human) of 210 % WT.
“Variant 26740 (A_P271D_strat2), one-armed trastuzumab antibody with heterodimeric IgG1 Fc”: the pKd in assay [2] is 7.54.
Consider “Variant 26717 (A_D270W_strat2), one-armed trastuzumab antibody”, for which the pKd was 7.08 in assay [3] and 7.57 in assay [4].
Turning to “Variant 26727 (A_D270P_strat2), one-armed trastuzumab antibody with heterodimeric IgG1 Fc”, the pKd in assay [1] is 6.74; in assay [2], 7.06.
In the assay with C1q (human), “Variant 32260 (trastuzumab FSA; chain A L234D_strat1, chain B G330*K_strat1) (antibody)” showed a C1q Binding (% WT) of 189 % WT.
“Variant 26732 (A_P271I_strat2), one-armed trastuzumab antibody with heterodimeric IgG1 Fc” had a pKd in assay [1] of 7.15.
Regarding “Variant 32261 (trastuzumab FSA; chain A L234Q_strat1, chain B G330*K_strat1) (antibody)”, the C1q Binding (% WT) with C1q (human) is 209 % WT.
Same read-out and setting: under “Variant 32263 (trastuzumab FSA; chain A L235A_strat1, chain B G330*K_strat1) (antibody)” stands 170 % WT.
On to “Variant 26724 (A_D270R_strat2), one-armed trastuzumab antibody with heterodimeric IgG1 Fc”, for which the pKd in assay [2] is 7.05.
Consider “Variant 26719 (A_D270T_strat2), one-armed trastuzumab antibody”, for which the figures for the pKd in assay [3] and in assay [4] were 7.20 and 7.64, respectively.
On the same counts, the results for “Variant 26715 (A_D270I_strat2), one-armed trastuzumab antibody” are 7.09 and 7.60.
On the same counts, the results for “Variant 26701 (A_E269Y_strat2), one-armed trastuzumab antibody” are 7.17 and 7.68.
Regarding “Variant 26702 (A_E269T_strat2), one-armed trastuzumab antibody”, the pKd in assay [3] was 7.19; in assay [4], 7.59.
As for “Variant 26721 (A_D270Q_strat2), one-armed trastuzumab antibody with heterodimeric IgG1 Fc”, the pKd in assay [1] is 7.06; in assay [2], 7.55.
For the substance “Variant 26708 (A_E269K_strat2), one-armed trastuzumab antibody”, the negative logarithm of the Kd (pKd) in assay [3] is 7.15; in assay [4], 7.66.
As for “Variant 26738 (A_P271Q_strat2), one-armed trastuzumab antibody with heterodimeric IgG1 Fc”, the figures for the pKd in assay [1] and in assay [2] were 7.11 and 7.59, respectively.
On the same counts, the results for “Variant 26739 (A_P271N_strat2), one-armed trastuzumab antibody with heterodimeric IgG1 Fc” are 7.05 and 7.55.
For “Variant 26710 (A_E269P_strat2), one-armed trastuzumab antibody”, the pKd is 7.11 in assay [3] and 7.57 in assay [4].
Take “Variant 26716 (A_D270F_strat2), one-armed trastuzumab antibody”: the pKd in assay [3] is 7.32; in assay [4], 7.77.
On the same counts, the results for “Variant 26718 (A_D270Y_strat2), one-armed trastuzumab antibody” are 7.16 and 7.59.
As for “Variant 26709 (A_E269H_strat2), one-armed trastuzumab antibody”, the pKd in assay [3] is 7.16; in assay [4], 7.66.
Regarding “Variant 26712 (A_D270A_strat2), one-armed trastuzumab antibody”, the pKd in assay [3] is 7.10; in assay [4] it was 7.54.
In the assay with C1q (human), “Variant 32255 (trastuzumab FSA; chain A S239T_strat1, chain B D329*I_F328*Y_strat1) (antibody)” yielded a C1q Binding (% WT) of 194 % WT.
Regarding “Variant 26713 (A_D270V_strat2), one-armed trastuzumab antibody”, the results for the negative logarithm of the Kd (pKd) in assay [3] and in assay [4] were 7.05 and 7.39, respectively.
On the same counts, the results for “Variant 26705 (A_E269N_strat2), one-armed trastuzumab antibody” are 7.08 and 7.59.
With “Variant 32273 (trastuzumab FSA; chain A L235R_strat2, chain B G237L_strat2) (antibody)”, the C1q Binding (% WT) with C1q (human) amounted to 2 % WT.
As to “Variant 26711 (A_D270G_strat2), one-armed trastuzumab antibody”, the pKd in assay [3] was 6.74; in assay [4], 7.28.
On the same counts, the results for “Variant 26707 (A_E269R_strat2), one-armed trastuzumab antibody” are 7.11 and 7.64.
Regarding “Variant 19515 (chain A: G236Q / chain B: S239D_H268D), one-armed trastuzumab antibody, Scaffold 2”, the IIb-Fold (fold change in affinity over wild-type) (fold over wild-type) with FcγRIIb [5] amounted to 9.6. The substance also displayed an IIaR-Fold (fold change in affinity over wild-type) (fold over wild-type) with FcγRIIaR of 14.2. Moreover, the IIb/IIaR Selectivity (IIb-Fold/IIaR-Fold) with FcγRIIb [6] turned out to be 0.7.

The pKd is the negative decadic logarithm of the Kd, by convention in mol/L. Low values mean a high Kd, high ones a low Kd.
